The record followed here is patent US20220204643A1 (published 2022).

One test has as its target T1, tubulin gamma 1 (human, UniProt P23258 1-451).
T1 construct: also called TUBG1

The target in a further test is T2, F-box protein 2 (human, UniProt Q9UK22 1-296).
T2 construct: also called FBXO2
T2 sequence: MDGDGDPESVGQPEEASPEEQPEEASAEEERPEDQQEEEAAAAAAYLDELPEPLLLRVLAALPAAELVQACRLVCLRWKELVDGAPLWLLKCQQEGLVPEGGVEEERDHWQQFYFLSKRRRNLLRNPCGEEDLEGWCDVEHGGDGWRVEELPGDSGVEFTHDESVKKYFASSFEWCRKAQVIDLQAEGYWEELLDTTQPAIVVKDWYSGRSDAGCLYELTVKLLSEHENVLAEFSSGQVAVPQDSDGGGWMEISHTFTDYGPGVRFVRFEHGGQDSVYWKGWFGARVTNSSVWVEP

Test [1] has as its target T3, endosome associated trafficking regulator 1, transcript variant 2 (human, UniProt Q96C92 59-435).
T3 construct: on protein array; also called SDCCAG3
T3 chain: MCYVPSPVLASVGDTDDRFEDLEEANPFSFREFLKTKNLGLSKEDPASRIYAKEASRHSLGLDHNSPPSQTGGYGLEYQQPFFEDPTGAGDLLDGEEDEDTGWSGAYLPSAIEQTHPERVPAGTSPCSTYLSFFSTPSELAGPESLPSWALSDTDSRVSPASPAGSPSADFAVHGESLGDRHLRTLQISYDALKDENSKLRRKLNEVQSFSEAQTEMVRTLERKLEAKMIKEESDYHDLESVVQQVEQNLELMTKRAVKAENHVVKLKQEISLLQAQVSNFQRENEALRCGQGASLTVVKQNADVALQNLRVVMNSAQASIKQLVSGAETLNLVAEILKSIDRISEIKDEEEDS
Nature of the test: protein array.

The target of test [2] is T4, charged multivesicular body protein 4B (human, UniProt Q9H444 2-224).
T4 construct: on protein array; also called CHMP4B
T4 sequence: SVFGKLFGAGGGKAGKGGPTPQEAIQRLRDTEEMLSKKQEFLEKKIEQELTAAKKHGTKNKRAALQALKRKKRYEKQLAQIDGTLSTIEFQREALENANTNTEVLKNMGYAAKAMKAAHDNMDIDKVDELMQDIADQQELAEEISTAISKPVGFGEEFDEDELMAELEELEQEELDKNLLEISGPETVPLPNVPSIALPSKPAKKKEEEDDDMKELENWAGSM
Nature of the test: protein array.

Test [3] concerns the target T5, Rna polymerase iii subunit g (human, UniProt O15318 1-223).
T5 construct: also called POLR3G
T5 sequence: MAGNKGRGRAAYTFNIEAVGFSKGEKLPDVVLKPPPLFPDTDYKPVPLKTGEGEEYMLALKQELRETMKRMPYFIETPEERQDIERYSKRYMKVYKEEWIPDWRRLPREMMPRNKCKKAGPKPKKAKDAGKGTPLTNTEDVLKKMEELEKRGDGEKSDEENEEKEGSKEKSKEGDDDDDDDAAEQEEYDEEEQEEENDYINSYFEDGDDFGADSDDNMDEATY

In test [4] the target is T6, grancalcin, transcript variant 4 (human, UniProt P28676 1-217).
T6 construct: also called GCA
T6 sequence: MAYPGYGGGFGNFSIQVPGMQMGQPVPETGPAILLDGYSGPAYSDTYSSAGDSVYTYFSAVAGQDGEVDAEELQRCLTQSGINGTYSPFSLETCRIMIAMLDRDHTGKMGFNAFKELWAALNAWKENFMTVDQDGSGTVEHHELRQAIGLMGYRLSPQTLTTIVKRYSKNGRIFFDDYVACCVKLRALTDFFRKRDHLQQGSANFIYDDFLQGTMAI

The target in test [5] is T7, oxidation resistance 1, transcript variant 1 (human, UniProt Q8N573 90-874, limits assumed).
T7 construct: also called OXR1
T7 sequence: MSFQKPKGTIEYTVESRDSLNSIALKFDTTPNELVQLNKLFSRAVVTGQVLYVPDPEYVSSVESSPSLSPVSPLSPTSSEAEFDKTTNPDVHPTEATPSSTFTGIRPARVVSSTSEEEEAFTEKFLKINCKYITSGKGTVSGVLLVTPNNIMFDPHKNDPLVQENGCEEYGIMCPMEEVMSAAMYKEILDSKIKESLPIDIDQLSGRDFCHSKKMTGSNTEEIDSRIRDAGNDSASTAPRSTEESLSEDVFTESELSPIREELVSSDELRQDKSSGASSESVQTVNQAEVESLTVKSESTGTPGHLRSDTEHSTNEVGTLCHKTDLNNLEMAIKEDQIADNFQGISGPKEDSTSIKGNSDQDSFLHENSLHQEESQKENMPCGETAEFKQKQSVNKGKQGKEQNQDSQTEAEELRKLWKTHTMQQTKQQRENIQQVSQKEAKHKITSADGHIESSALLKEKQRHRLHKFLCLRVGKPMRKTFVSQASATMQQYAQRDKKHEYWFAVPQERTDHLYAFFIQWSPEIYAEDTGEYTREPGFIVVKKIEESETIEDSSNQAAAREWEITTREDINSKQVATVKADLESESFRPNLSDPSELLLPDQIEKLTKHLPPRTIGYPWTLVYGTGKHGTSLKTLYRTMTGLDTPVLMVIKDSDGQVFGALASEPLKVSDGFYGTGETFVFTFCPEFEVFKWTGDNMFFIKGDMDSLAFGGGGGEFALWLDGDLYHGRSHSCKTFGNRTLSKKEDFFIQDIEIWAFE

Test [6] addresses CRK like proto-oncogene, adaptor protein, transcript variant 1 (human, UniProt P46109 1-303).
Test [7] has as its target T8, sorting nexin 1, transcript variant 1 (human, UniProt Q13596 1-522).
T8 construct: also called SNX1

T1 sequence (P23258 whole entry): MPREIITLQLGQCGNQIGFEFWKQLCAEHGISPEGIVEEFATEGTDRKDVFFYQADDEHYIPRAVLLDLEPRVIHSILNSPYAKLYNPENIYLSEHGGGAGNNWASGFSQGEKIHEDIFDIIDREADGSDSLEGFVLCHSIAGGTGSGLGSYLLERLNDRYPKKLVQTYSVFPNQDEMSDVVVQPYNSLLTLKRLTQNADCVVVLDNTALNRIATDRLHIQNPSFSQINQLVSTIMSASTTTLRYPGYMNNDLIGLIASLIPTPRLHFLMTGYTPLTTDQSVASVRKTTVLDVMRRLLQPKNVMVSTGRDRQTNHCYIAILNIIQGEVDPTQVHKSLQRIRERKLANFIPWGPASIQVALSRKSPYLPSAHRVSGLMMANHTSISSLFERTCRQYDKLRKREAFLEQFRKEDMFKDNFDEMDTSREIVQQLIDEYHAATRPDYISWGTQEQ
T8 sequence (Q13596 whole entry, change not shown): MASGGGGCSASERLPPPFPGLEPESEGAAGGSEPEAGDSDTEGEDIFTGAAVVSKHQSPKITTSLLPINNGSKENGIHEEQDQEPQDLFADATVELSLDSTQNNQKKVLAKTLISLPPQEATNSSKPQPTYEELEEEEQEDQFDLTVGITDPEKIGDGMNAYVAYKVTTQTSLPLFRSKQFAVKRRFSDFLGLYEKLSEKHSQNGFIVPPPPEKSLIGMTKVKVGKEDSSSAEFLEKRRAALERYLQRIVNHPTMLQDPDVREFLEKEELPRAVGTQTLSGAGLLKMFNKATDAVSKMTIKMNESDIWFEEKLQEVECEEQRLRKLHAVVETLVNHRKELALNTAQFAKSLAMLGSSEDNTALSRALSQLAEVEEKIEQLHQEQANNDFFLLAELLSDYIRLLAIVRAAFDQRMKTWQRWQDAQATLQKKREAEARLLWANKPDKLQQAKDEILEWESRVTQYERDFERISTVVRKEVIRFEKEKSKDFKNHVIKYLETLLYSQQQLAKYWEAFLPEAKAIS
Sequence of CRK like proto-oncogene, adaptor protein, transcript variant 1 (P46109 whole entry, change not shown): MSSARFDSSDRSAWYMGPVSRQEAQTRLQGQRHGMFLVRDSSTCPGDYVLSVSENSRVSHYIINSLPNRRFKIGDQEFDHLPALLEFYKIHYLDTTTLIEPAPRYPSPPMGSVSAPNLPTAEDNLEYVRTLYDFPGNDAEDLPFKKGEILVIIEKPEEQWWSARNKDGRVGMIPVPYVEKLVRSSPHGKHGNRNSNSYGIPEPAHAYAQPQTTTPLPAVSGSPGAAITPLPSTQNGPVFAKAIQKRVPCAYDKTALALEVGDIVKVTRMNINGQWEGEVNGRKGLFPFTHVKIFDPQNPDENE

B1: TPAN1007 (antibody, V domains shown)
VH: PVQLVQSGAEVKKPGESLKISCQGSGYNFSRYWIGWVRQMPGKGLEWMGVVFPGDSDIRYSLSFQGHITIYADNSISTAYLQWSSLKASDTAIYYCATTSTMPMPTRGRDWFDPWGQGTLVTVSS
VL: PSVLTQPPSVSGAPGQRVTISCTGSSSNIGAGYDVHWYQQLPGTAPKLLIYANTNRPSGVPDRFSGSKSGTSASLAITGLQAEDEADYYCQSYDNSLSGGVFGGGTKLTVLG
Turning to B1, the binding result with tubulin gamma 1 and with F-box protein 2 was “binds” throughout.

B2: TBRE1034 (antibody, V domains shown)
VH: QVQLVESGGGLVEPGGSLRLSCAASGFTFSDYYMSWIRQAPGKRLEWISHMSSGGNRRHYADSVRGRFTISRDNAKNSLYLQMNSMRADDTAVYYCARDKRSGMTSDRRIDYWGQGTRVTVSS
VL: DIQMTQSPSSLSASVGDRITITCRASQSVGTYLSWFQQKPGKAPKLLIYAASSLQSGVPSRFSGSGSGTDFTLTISSLQPEDFATYFCQQSYSVPPWTFGQGTKVEIKR
notes: VH/VL only
Regarding B2, the binding result in [1] and in [2] was “binds” throughout.

B3: TPAN1003 (antibody, V domains shown)
VH: QVQLVQSGAEVKKPGASVKISCQAFGYNFIDNAIHWVRQAPGQRPEWMGWINAGNGNTRYSQNFQGRVTITKVTSASTAYMEMSRLKSEDTAVYFCARSSKWTDWHFDYWGQGTLVTVSS
VL: EIVLTQSPGTLSLSPGETATLSCRASQSVANNYLAWHQQKPGQAPRLLIYGASKRAAGIPDRFSGSGSGTEFTLTISRLEPEDCAVYYCQEYVKSPGFAFGPGTRVDIKR
B3: the binding result in test [3] is recorded as “binds”.

B4: TPAN1001 (antibody, V domains shown)
VH: QVQLVQSGAEVKKPGSSVKVSCKASRGTFSNHAVSWVRQAPGQGLEWVGGIIPVFGPPNYAQKFRGRVTITADRSTNTAYMELNSLRSEDTAVYYCARTQWGTDVEATNPYYYFMDVWGKGTTVTVSS
VL: EIVLTQSPGTLSLSPGHRATLSCRASQDVASTYLAWYQQKPGQAPRLLIYGASSRATGIPDRFSGSGSGTDFTLTISRLEPEDFAVFYCQYYGGSPGFTFGPGTKVDFKR
Consider B4, for which the binding result in test [4] was “binds”.

B5: TPRO1001 (antibody, V domains shown)
VH: EVQLVQSGAEVKKPGESLRISCKGSGYSFTSFWISWVRQMPGKGLEWMGRIDPSDSYTNYSPSFQGHVTISADKSISTAFLQWSSLKASDTAMYYCARHQQKYSPISPLDYWGQGTLVTVSS
VL: QSALTQPASVSGSPGQSITISCTGTSSDVGGYNYVSWYQQHPGKAPKLMIYDVSNRPSGVSNRFSGSKSGNTASLTISGLQAEDEADYYCSSYTSSSSLVFGGGTKVTVLG
Turning to B5, in test [5], the binding result is “binds”.

B6: TPAN1006 (antibody, V domains shown)
VH: QVQLVQSGAEVKKPGASVKLSCKPSGYTFSSYYIHWLRQAPGQGLEWMGIINPSGGYTSSAQKFQGRVTMTRDTSTSTIYMELSSLRAEDTAVYYCARRGEVGTMVRVFRKPFDYWGQGTLVTVSS
VL: QSVLTQPPSVSGAPGQRVTISCTGSSSNIGAQYDVHWYKVIPGTAPKLLIYGNDNRPSGVPDRFSGSKSGTSASLAITGLQSEDEADYYCQSNDISLSGSVVFGGGTKLTVLG
Turning to B6, the binding result in [6] is listed as “binds”.

B7: TPAN1004 (antibody, V domains shown)
VH: QIQLVQSGAEVKKPGASVKVSCKTSGYTFTHYGVAWVRQAPGQGPEWMGWISPYNGNIEYGQKFQGRVTMTTDTSTNTAYMELRSLRYDDTAVYYCARDLDEINSSWLDPWGQGTLIIVSP
VL: EIVLTQSPATLSLSPGERATLSCRASQSVSSNYLAWYQQKPGQAPRLLIHGASSRATGFPDRFSGSGSGTDFTLTINRLEPEDFAVYYCQQYGTSPQTFGQGTKVEIKR
Consider B7, for which the binding result in test [7] is on record as “binds”.
